Reference: IntAct's records for PubMed 18589438

B1: Phorbol-12-myristate-13-acetate-induced protein 1 (Mus musculus), Q9JM54 (parent)
chain: MPGRKARRNAPVNPTRAELPPEFAAQLRKIGDKVYCTWSAPDITVVLAQMPGKSQKSRMRSPSPTRVPADLKDECAQLRRIGDKVNLRQKLLNLISKLFNLVT
B2: Bcl-2-binding component 3 (Mus musculus), Q99ML1 (parent)
chain: MARARQEGSSPEPVEGLARDSPRPFPLGRLMPSAVSCSLCEPGLPAAPAAPALLPAAYLCAPTAPPAVTAALGGPRWPGGHRSRPRGPRPDGPQPSLSPAQQHLESPVPSAPEALAGGPTQAAPGVRVEEEEWAREIGAQLRRMADDLNAQYERRRQEEQHRHRPSPWRVMYNLFMGLLPLPRDPGAPEMEPN

Variants of: B1
Conditions: with mcl1_mouse Mcl1, P97287
Chain of mcl1_mouse Mcl1, P97287 (P97287 whole entry): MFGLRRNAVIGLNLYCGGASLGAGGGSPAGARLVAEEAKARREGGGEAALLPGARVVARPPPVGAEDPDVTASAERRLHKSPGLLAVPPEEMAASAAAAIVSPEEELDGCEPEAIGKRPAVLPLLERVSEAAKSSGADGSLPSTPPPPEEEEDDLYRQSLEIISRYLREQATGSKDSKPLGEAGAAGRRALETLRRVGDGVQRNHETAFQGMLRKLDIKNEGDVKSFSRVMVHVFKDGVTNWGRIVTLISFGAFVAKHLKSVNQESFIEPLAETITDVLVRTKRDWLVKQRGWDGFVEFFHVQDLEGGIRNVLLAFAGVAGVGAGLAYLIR

Row | Variant | effect of a mutation on the interaction
1 | E74F | increasing interaction strength

Variants of: B2
Conditions: with mcl1_mouse Mcl1, P97287

Row | Variant | effect of a mutation on the interaction
2 | M144I | increasing interaction
